Paper PMC12442346, “Novel regulatory mechanism of choline-O-sulfate and choline catabolism by two BetIs in Alphaproteobacteria” (Applied and Environmental Microbiology, 2025)

Key:
BetI2 = biological target: T1, BetI2 (Ruegeria pomeroyi, UniProt Q5LUG8); test: microscale thermophoresis of BetI2 binding to DNA probes with or without choline; conditions: effector; DNA probes P1 (betI2 box 1) and P2 (betI2 box 2); 1x PBS pH 7.4, 0.05% Tween-20, 25 C; labelled protein
T1 construct: gene betI; full length gene in pET28a(+), C-terminal His-tag, expressed in E. coli BL21(DE3), Ni-NTA and gel filtration; RED-Tris-NTA labelled for MST
T1 sequence (Q5LUG8 1-193): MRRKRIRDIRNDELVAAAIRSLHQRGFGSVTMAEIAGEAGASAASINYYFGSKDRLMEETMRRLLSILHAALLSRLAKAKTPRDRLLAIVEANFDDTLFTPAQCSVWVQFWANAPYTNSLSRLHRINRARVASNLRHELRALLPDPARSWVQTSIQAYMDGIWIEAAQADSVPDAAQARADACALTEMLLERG

[1] = tested on: T2, BetI2 (Ruegeria pomeroyi DSS-3), ORF:6e67dd5c; test: EMSA; conditions: EMSA: 2 mM EDTA, 20 mM KCl, 0.5 mM DTT, 4% Ficoll-400, pH 8.0, 2 ug poly(dI-dC), 20 uL, protein 0-28 uM; MST: 1x PBS pH 7.4, 0.05% Tween-20, 25 C
T2 sequence: T1 sequence (Q5LUG8 1-193)

[2] = tested on: BetI2 (Ruegeria pomeroyi DSS-3); test: MST; conditions: EMSA: 2 mM EDTA, 20 mM KCl, 0.5 mM DTT, 4% Ficoll-400, pH 8.0, 2 ug poly(dI-dC), 20 uL, protein 0-28 uM, MST: 1x PBS pH 7.4, 0.05% Tween-20, 25 C

`C[N+](C)(C)CCO` [choline] was tested, and the “microscale thermophoresis of BetI2 binding to DNA probes with or without choline” value (BetI2) was “The affinities of BetI2 to the IGR probe variants with or without choline were determined”.
In the case of “GGCCATATTGGCCAATCGGCCAAAGGGTTCAAGTTTAAAGGATTATCGAAAAACTTGAACGACTGTTCAAGTTTTGGTTCTTTTGATCAGGTTATTGTGCTAATTTCCCGCATCATTCGACCCGGCCCGGAGGAGAGGGCGGGCGTGAACCCAGGGAGGGACCATGAT (double strand) [IGR (EMSA probe)]”, the binding [1] is reported as “binds”.
Molecule IGR (MST probe) has a Kd ([2]; no choline stated) of 0.87 µM.
P1 (IGR variant, betI2 box 1 only) showed a binding signal (fold affinity of P1 over P2) ([2]; choline) of 2 and a binding signal (fold Kd of P1 over P2) ([2]; no choline) of 4.
Work on P2 (IGR variant, betI2 box 2 only) yielded a binding signal (affinity relative to P1 with choline) [2] of 0.5 and a binding signal ([2]; no choline, scale: reference for P1 without choline) of 1.
